{"source": "patent US20220098577", "key": {"[1]": {"molecular_target": "T1, T4 DNA ligase (Enterobacteria phage T4?) (UniProt P00970)", "T1 sequence": "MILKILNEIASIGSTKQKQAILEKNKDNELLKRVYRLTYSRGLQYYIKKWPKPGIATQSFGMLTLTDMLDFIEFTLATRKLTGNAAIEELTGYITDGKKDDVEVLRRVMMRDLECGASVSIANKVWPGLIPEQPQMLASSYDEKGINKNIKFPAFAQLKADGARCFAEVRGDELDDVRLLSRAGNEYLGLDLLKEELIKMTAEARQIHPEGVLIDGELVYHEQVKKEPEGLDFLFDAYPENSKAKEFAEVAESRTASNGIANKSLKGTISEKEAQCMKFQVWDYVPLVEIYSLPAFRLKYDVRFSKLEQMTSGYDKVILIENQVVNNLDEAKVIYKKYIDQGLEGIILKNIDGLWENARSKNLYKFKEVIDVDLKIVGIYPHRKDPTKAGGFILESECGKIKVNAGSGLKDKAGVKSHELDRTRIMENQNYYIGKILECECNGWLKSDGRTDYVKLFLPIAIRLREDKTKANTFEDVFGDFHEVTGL"}, "[2]": {"molecular_target": "T1, T4 DNA ligase (Enterobacteria phage T4?)", "settings": "5'-phosphate, 25 C"}, "SapI": {"molecular_target": "T2, SapI (UniProt O52712)", "T2 sequence": "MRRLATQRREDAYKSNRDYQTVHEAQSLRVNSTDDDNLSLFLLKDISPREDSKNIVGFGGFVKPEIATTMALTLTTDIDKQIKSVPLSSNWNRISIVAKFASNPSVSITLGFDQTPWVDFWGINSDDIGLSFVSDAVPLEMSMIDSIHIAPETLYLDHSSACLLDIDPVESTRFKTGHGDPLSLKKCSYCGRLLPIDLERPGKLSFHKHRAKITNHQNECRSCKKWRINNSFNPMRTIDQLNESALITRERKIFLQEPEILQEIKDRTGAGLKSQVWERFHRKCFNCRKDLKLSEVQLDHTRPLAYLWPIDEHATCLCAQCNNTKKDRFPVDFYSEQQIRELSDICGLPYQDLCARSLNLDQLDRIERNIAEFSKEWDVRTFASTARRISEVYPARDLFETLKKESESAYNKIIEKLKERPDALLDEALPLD", "test": "cleavage_in_vitro", "settings": "SapI digestion giving 3-base overhang"}}, "note": "Where two headings read alike, the source gives them in different places."}
{"substance": "GNN/TNN mismatch overhang substrate", "values": [{"measurement": "relative ligation rate (fold faster than TNN/GNN)", "setting": "[1]; ligation of edge G:T mismatch", "result": 80}]}
{"substance": "NNNCGAAGAGCTGCGATCCAGTGCGCCGTGCATTGATCAACGCAANNNNNNATCTCTCTCTTTTCCTCCTCCTCCGTTGTTGTTGTTGAGAGAGATNNNNNNTTGCGTTGATCAATGCACGGCGCACTGGATCGCAGCTCTTCG [AAA 3-base overhang substrate]", "values": [{"measurement": "binding signal", "setting": "[2]; correct ligations 1403.8 x10-5", "result": 99.2, "unit": "% fidelity"}]}
{"substance": "NNNCGAAGAGCTGCGATCCAGTGCGCCGTGCATTGATCAACGCAANNNNNNATCTCTCTCTTTTCCTCCTCCTCCGTTGTTGTTGTTGAGAGAGATNNNNNNTTGCGTTGATCAATGCACGGCGCACTGGATCGCAGCTCTTCG [GGC 3-base overhang substrate]", "values": [{"measurement": "binding signal", "setting": "[2]; correct ligations 864.7 x10-5", "result": 53.6, "unit": "% fidelity"}]}
{"substance": "NNNCGAAGAGCTGCGATCCAGTGCGCCGTGCATTGATCAACGCAANNNNNNATCTCTCTCTTTTCCTCCTCCTCCGTTGTTGTTGTTGAGAGAGATNNNNNNTTGCGTTGATCAATGCACGGCGCACTGGATCGCAGCTCTTCG [TAA 3-base overhang substrate]", "values": [{"measurement": "binding signal", "setting": "[2]; correct ligations only 209.0 x10-5", "result": 98.6, "unit": "% fidelity"}]}
{"substance": "TCAGGTNNNCGAAGAGCTGCGATCCAGTGCGCCGTGCATTGATCAACGCAANNNNNNATCTCTCTCTTTTCCTCCTCCTCCGTTGTTGTTGTTGAGAGAG [ligation library precursor (extended)]", "values": [{"measurement": "activity", "setting": "SapI", "result": "> 95", "unit": "% cut"}]}
{"substance": "TNN/GNN mismatch overhang substrate", "values": [{"measurement": "relative ligation rate (relative to GNN/TNN)", "setting": "[1]; stated as about 80-fold slower than 5'-G mismatch", "result": 0.0125}]}
